The series is described as follows: Thermal shift stability assay (TSSA), aggregation temperature. Format: physicochemical. The arrangement: unit not given here. The following applies: for Tagg run1 / Tagg run2 / Tagg run3: mAb2 VH/Vk, human IgG1 Fc mutation formats, temperature of aggregation; for Tagg Mean: mean of run1-run3. Here is the method:
The resulting antibodies were tested for stability in the following reference formulation at a concentration of approximatively 7 mg/mL: pH 6.0; histidine buffer (10 mM); sucrose (200 mM); NaCl (50 mM); Polysorbate 80 (PS80) (0.2 g/L). […] So for this study the concentration is set at 0.2 g/L. The stability of the formulations was monitored in two storage conditions (at +5° C.±3° C. and at +40±3° C. For each study, 3 times point were performed: TO, T15D (15 days) and T1M (1 month). A freeze thaw (F/T) and a thermal shift stability assay (TSSA) were conducted for the format comparison. To perform F/T cycles, the samples were frozen at least 2 hours at −20° C. and thawed at least 1 hour at room temperature, the F/T cycle is repeated three times and samples are tested 24 h after the last Freeze/Thaw cycle. At each time point, the following tests were performed: • Particulate Matter (MFI) • Visual Inspection (Appearance) • Impurities (SE-HPLC) • Turbidity (400 nm) • Protein Concentration (280 nm) (performed with Nanodrop, Thermo Fisher Scientific Inc.)
These aromatic residues confer a relatively high predicted hydrophobicity to the antibody. However, the aromatic residues in these antibodies are believed to be important for antibody function and can probably not be replaced by a non-aromatic residue without a reduction or loss of activity. […] Aggregation temperature is correlated with the intrinsic stability. The higher the TAgg, the higher the stability of the protein. […] The stability of each of the Fc domain of human IgG1 isotype comprises an amino acid substitution at Kabat residue(s) 234, 235, 237, 330 and/or 331 (L234A/L235E/P331S substitutions, L234F/L235E/P331S substitutions, L234A/L235E/G237A/P331S substitutions, and L234A/L235E/G237A/A330S/P331S substitutions) improved the antibody, as shown in the table below. Such mutations can therefore enhance the pharmacological properties and/or activity of the antibody.

B1: L234F/L235E/P331S: mAb2 variable regions as human IgG1 with L234F/L235E/P331S; heavy chain SEQ ID NO: 26, light chain SEQ ID NO: 9 (antibody)
heavy: QVQLVQSGSELKKPGASVKVSCKASGYTFTHYGMNWVRQAPGQGLKWMGWINTYTGEPTYADDFKGRFVFSLDTSVSTAYLQISSLKAEDTAVYYCARRRYEGNYVFYYFDYWGQGTTVTVSSASTKGPSVFPLAPSSKSTSGGTAALGCLVKDYFPEPVTVSWNSGALTSGVHTFPAVLQSSGLYSLSSVVTVPSSSLGTQTYICNVNHKPSNTKVDKRVEPKSCDKTHTCPPCPAPEFEGGPSVFLFPPKPKDTLMISRTPEVTCVVVDVSHEDPEVKFNWYVDGVEVHNAKTKPREEQYNSTYRVVSVLTVLHQDWLNGKEYKCKVSNKALPASIEKTISKAKGQPREPQVYTLPPSREEMTKNQVSLTCLVKGFYPSDIAVEWESNGQPENNYKTTPPVLDSDGSFFLYSKLTVDKSRWQQGNVFSCSVMHEALHNHYTQKSLSLSPGK
VL: DIQMTQSPSSLSASVGDRVTITCRASENIYSYFSWYQQKPGKAPKLLIYTAKTLAEGVPSRFSGSGSGTDFTLTISSLQPEDFATYYCQHHYVTPYTFGGGTKVEIK
modifications: Chimeric
Turning to B1, the “Tagg run1” value came out at 67.65, the “Tagg run2” value is on record as 67.87, the “Tagg run3” value is 68.34 and the “Tagg Mean” value stood at 68.0.

B2: L234A/L235E/G237A/P331S: mAb2 variable regions as human IgG1 with L234A/L235E/G237A/P331S; heavy chain SEQ ID NO: 29, light chain SEQ ID NO: 9 (antibody)
heavy: QVQLVQSGSELKKPGASVKVSCKASGYTFTHYGMNWVRQAPGQGLKWMGWINTYTGEPTYADDFKGRFVFSLDTSVSTAYLQISSLKAEDTAVYYCARRRYEGNYVFYYFDYWGQGTTVTVSSASTKGPSVFPLAPSSKSTSGGTAALGCLVKDYFPEPVTVSWNSGALTSGVHTFPAVLQSSGLYSLSSVVTVPSSSLGTQTYICNVNHKPSNTKVDKRVEPKSCDKTHTCPPCPAPEAEGAPSVFLFPPKPKDTLMISRTPEVTCVVVDVSHEDPEVKFNWYVDGVEVHNAKTKPREEQYNSTYRVVSVLTVLHQDWLNGKEYKCKVSNKALPASIEKTISKAKGQPREPQVYTLPPSREEMTKNQVSLTCLVKGFYPSDIAVEWESNGQPENNYKTTPPVLDSDGSFFLYSKLTVDKSRWQQGNVFSCSVMHEALHNHYTQKSLSLSPGK
VL: DIQMTQSPSSLSASVGDRVTITCRASENIYSYFSWYQQKPGKAPKLLIYTAKTLAEGVPSRFSGSGSGTDFTLTISSLQPEDFATYYCQHHYVTPYTFGGGTKVEIK
modifications: Chimeric
In the case of B2, the “Tagg run1” value came to 66.08, the “Tagg run2” value is recorded as 66.55, the “Tagg run3” value is 66.29 and the “Tagg Mean” value is listed as 66.3.

B3: L234A/L235E/G237A/A330S/P331S: mAb2 variable regions as human IgG1 with L234A/L235E/G237A/A330S/P331S; heavy chain SEQ ID NO: 28, light chain SEQ ID NO: 9 (antibody)
heavy: QVQLVQSGSELKKPGASVKVSCKASGYTFTHYGMNWVRQAPGQGLKWMGWINTYTGEPTYADDFKGRFVFSLDTSVSTAYLQISSLKAEDTAVYYCARRRYEGNYVFYYFDYWGQGTTVTVSSASTKGPSVFPLAPSSKSTSGGTAALGCLVKDYFPEPVTVSWNSGALTSGVHTFPAVLQSSGLYSLSSVVTVPSSSLGTQTYICNVNHKPSNTKVDKRVEPKSCDKTHTCPPCPAPEAEGAPSVFLFPPKPKDTLMISRTPEVTCVVVDVSHEDPEVKFNWYVDGVEVHNAKTKPREEQYNSTYRVVSVLTVLHQDWLNGKEYKCKVSNKALPSSIEKTISKAKGQPREPQVYTLPPSREEMTKNQVSLTCLVKGFYPSDIAVEWESNGQPENNYKTTPPVLDSDGSFFLYSKLTVDKSRWQQGNVFSCSVMHEALHNHYTQKSLSLSPGK
VL: DIQMTQSPSSLSASVGDRVTITCRASENIYSYFSWYQQKPGKAPKLLIYTAKTLAEGVPSRFSGSGSGTDFTLTISSLQPEDFATYYCQHHYVTPYTFGGGTKVEIK
modifications: Chimeric
B3: the “Tagg run1” value was found to be 66.35, the “Tagg run2” value was determined as 67.58, the “Tagg run3” value was 67.07 and the “Tagg Mean” value is on record as 67.0.

B4: L234A/L235E/P331S: mAb2 variable regions as human IgG1 with L234A/L235E/P331S; heavy chain SEQ ID NO: 27, light chain SEQ ID NO: 9 (antibody)
heavy: QVQLVQSGSELKKPGASVKVSCKASGYTFTHYGMNWVRQAPGQGLKWMGWINTYTGEPTYADDFKGRFVFSLDTSVSTAYLQISSLKAEDTAVYYCARRRYEGNYVFYYFDYWGQGTTVTVSSASTKGPSVFPLAPSSKSTSGGTAALGCLVKDYFPEPVTVSWNSGALTSGVHTFPAVLQSSGLYSLSSVVTVPSSSLGTQTYICNVNHKPSNTKVDKRVEPKSCDKTHTCPPCPAPEAEGGPSVFLFPPKPKDTLMISRTPEVTCVVVDVSHEDPEVKFNWYVDGVEVHNAKTKPREEQYNSTYRVVSVLTVLHQDWLNGKEYKCKVSNKALPASIEKTISKAKGQPREPQVYTLPPSREEMTKNQVSLTCLVKGFYPSDIAVEWESNGQPENNYKTTPPVLDSDGSFFLYSKLTVDKSRWQQGNVFSCSVMHEALHNHYTQKSLSLSPGK
VL: DIQMTQSPSSLSASVGDRVTITCRASENIYSYFSWYQQKPGKAPKLLIYTAKTLAEGVPSRFSGSGSGTDFTLTISSLQPEDFATYYCQHHYVTPYTFGGGTKVEIK
modifications: Chimeric
For the molecule B4, the “Tagg run1” value was determined as 66.50, the “Tagg run2” value came to 66.91, the “Tagg run3” value came to 67.77 and the “Tagg Mean” value was 67.1.
